Measured values from the DeepSol protein solubility set.

Test: soluble on expression in E. coli; label from the status in PepcDB or PDB records

Sequence	soluble on expression in E. coli
MTPEIKVKSMRSVGTQVDVQCITYGLAGFDSVFKHCGVFSGEEHNVSSIWKGPVRMVERKTETESFEISQYGETVFKPSLQLLVGTSDEIAFSLLRHVFSKMDIIELRHYLQVLGFEKTFNLMYNLGEEFIEGEIPVDERILLDEIEALESFTVSNMTIEEEIEARRVERLALKFVEEMYNPDTENDEQIALLLHSEMNDENGDNDLIEEDYFNIANLEESFPGTNKKVVREAYNIAGRKVDFTREILLSNGEVENTYAVKLKPKPTWSKKVASSPSPLRLSLPKKSKKEEENHFLKKRSGRHSQLEEIQLLAIRTRQKIEADRITSSNSMAAAKYRQLIIVDRASRMKIEKSSEVKELDRKIREAHNNPWFLDLHYMSVDGAVKLVKEAIEAVKYHLKAARNLDRRITVVTGSGNNSKCGAKIKPQVLAMLQHNDYNYELVNDGCIRFKV	not soluble
MENKYTHGVLFYHEHSGLKNINQGIGEVTTALSSICKHLSIQLSENEGDIIKYCQEIKTKNYAKDVDILFILGGDGTVNELINGVMSHDLQLPIGILPGGTFNDFTKTLNIAPNHKQASEQMISAQVGTYDVIKINNQYALNFVGLGLIVQNAENVQDGSKDIFGKLSYIGSTVKTLLNPTQFNYQLSIDDKTYSGETTMILTANGPFIGGSRIPLTDLSPQDGELNTFIFNEQSFSILNDIFKKRDSMNWNEITQGIEHIPGKKISLTTDPAMKVDIDGEISLETPIDIEVIPNAIQLLTVNDL	soluble
MGSGILFVFAIGAIPSQAQDIGSTDRLNVENWQEWETVGEAQLTWFVFDIYRSRLKAPNGQYLVSTDVSPHPFALEINYQRDISKQQLLEVTDEQWQKLGFPKSNRQQWITQLSFIFPSIKNGDELTYVTDGDKGQIIYRQAGTKTQKMVGEITDERMNDAFLSIWLSPKTEFPKLRKQLIGQVRP	not soluble
PSKKNGRSGPQPHKRWVFTLNNPSEDERKKIRDLPISLFDYFIVGEEGNEEGRTPHLQGFANFVKKQTFNKVKWYLGARCHIEKAKGTDQQNKEYCSKEGNLLMECGAPRSQGQR	soluble
MGSDKIHHHHHHMPLLPQPAGSVTTGRYTFAAAQVHAQTLTVCIVCNNTLYPAGSAVMSRVNVSLLQSGMILSEDVTDSNGRKLLCAGDAITEKHLRILKIWGVAEVDVEGIEPADAARSALDGLDPLRVEAAAARATARFALNDLQYEPVCMLMQCSVAALAKGADPVAPLPDYSVLPAAPMPSAPPALADMLRDDTRLGSLPPVFHRLVDVVNDPRSSATDMAEVIANDTDLSARLLRLVNSTFYGLRAKVDTITRAVTIIGSNQLVSLAMGAVMTTFFKGLPNSIVDMRSFWEHSVACGVAARLLASLHRMPNTERFFVAGLLHDIGRLAVYRLLPEHSLYMLTESRRRGISMRAMEREVLGFSHDRLGGRLLKEWRCPVSLERNVALHHTPGSGHGGLESAIINVADILAHTLEFGTSGEVLVPRLEQAVWDALALPAGTLEQAAAQMDYQVHEIIRFFELDE	not soluble
MRGSHHHHHHGMASMTGGQQMGRDLYDDDDKDHPFTEGRSWPSAPDDSKAQAHRIHIDPEIQDGSPTTSRRPSGTGTGPEDGRPSLGSPYGKPPCFPVPHNGSSEATLPAQMSTLHVSPPPSADPAEASRGAGSRVDLGSEVYRMLREPAEPVAAEPKQSGSFRYLQGMLEAGEGGD	soluble
MAELRSFIFIDRLQPQTMSYLGTWIKGALPRANMAAQIIEVAPGLDIEGVTDVALKHAEVKAGILVVERQFGYLEFHGETGAVKAAADAALDYLGGDPDAAVRPEILASRIISSIDHQHAFLINRNKIGSMVLPGESLFVLEVAPASYAILATNEAEKAADVKVVDFRMIGATGRVYLSGTEADVRQAADAARDALAVLQGA	soluble
DVETCRDERCYRLWINSLGIDSYVNNVFEDVRNGWILLEVLDKVSPSSVNWKHASKPPIKMPFRKVENCNQVIKIGKQLKFSLVNVAGNDIVQGNKKLILGLLWQLMRFHMLQLLKSLRSEMTDADILSWANRKVRTMGRKLQIESFKDKSLSSGLFFLNLLWAVEPRVVNWNLVTKGETDDEKRLNATYIVSVARKLGCSVFLLPEDIVEVNQKMILILTASIMYWSLQR	soluble
MSSEAVAQATAATTSPEHGVPTSSATPTPPPSKGGGAGGGGGGEQQQVPFQMIPPGHFFANPFLNPYIPTAGAPAQEGEAQPQMVFSPAQYQEVMHHYFQQMMAASGAQFPIPFPMQFQPALQQPRPSSQASSSHRSEDDNGRQTAGSVVSSNVSPNHREVRPAEDSTETSGVVQNNDELLVPTSTSSDVTIGDVIEKSDSPENSQESAGGEEKSEEKRKLSGDRTDSLIRKQMSEMEKEITRRSQNKNIKTSGLSYTAPAPPSTEKSAPKESLNQLRSSFNLPDDSTTVGPVGPSTVPQQSQQFANNSMFMANAGNFVQNAFPIGVTMTPQATFGAAPGFQMMQPHQHNLFMQQPNPTFVNNGTNPFLQTQATLPNFVQNGTAPLVPTVSAQQFTPEQLAAAFAQQQIAQSAAPTPFDSPPPSMPSTSSGPSGALAPPPPPSHPIPRRVSGNGWPEENKENGTSTSTTNGAQSVPAAAGTDDPVWVLRDSYLKKMQREQRTSEEEEMSWQEAATAAQEAAENGGGDDQEEQETDRLLNGGTTGASTKGAERRGSVDKKKNSKETMVHEPAVLIEGVLFRARYLGSTQMLCESRGSKAARMAQAQEAVARVKAPEGDVQPSTEIDLFISTEKIMVLNTDLQRISDTDVRQDILMDHALRTISYIADIGDLVVLMARRMSTSHSDESCSDGDSSGGGVRKTPKVICHVFESDEASFIAQSIGQAFQVAYVEFLRANGIDDPSYLRQIDYQEVLNSQELLGDELEMFAKKETQKEVVVPKKAGEPLGIVVVESGWGSMLPTVVLAHMNPVGPAAHSNKLNIGDQIININGISLVGLPLSAAQTQIKNMKTATAVRMTVVSTPPVVEVRIRRPDTKYQLGFSVQNGVICSLLRGGIAERGGIRVGHRIIEINGTSVVAVAHDRIVNMLATAVGEIHMKTMPTSMFRLLTGQEQPQYI	not soluble
MRASRKRLHTTNLRWNMSQKHWSKVQLLHEVVKNPNIIIKGKHSYYSDCWDAGFEASVVRYLHGDEISQRWDPLWEIDQLVIGDYVCIGAEVVILMGGNHTHRADWFCLYPFMDVIEQAYVGKGNTEIGDGAWLGMRAMIMPGVKIGEGAIVAANSVVTKDVAPYSIVAGSPAQLVKYRFDAKVIDELLALKVYDWPPEKFTALKSYLCALDLAALKQAVIQYDAEPHNPLS	not soluble
MGSDKIHHHHHHMSLLINLSFAPLQPTGWLTYSLNLLPHIKYLGVNVLSPREIPEVKVYQSPTNITTECGIKGHFQRLMWVQFKLPSFYKKLKSQLLFSPIPEVPLFSRCRSIVTIHDLIPLRFPQEFSAAQLFYCRNYLPAVIKQSEHIICNSLSTAHDIQNFLGVPEKKITITSLAIDTENFKFLDLPKKNYFLYYGRHNIYKNLNRIIAAFAALPNKDYELWLAGPNDARYTPTLQAQVEELGITHRVKFLDYVSYSELPVIINQAIALVFPSLWEGFGFPVLEALACGTPVITSNLSSLPEVAGDAAILINPYNTAEITDAMQNIANDVKLQSHLSTQGIARANQFSWERTGKATSEVLSRYL	not soluble
MKWLRLQDLPTDNSFAALPAEFYTRLQPRPPAAPRLLHANAEAAALIGLDPAEFSTQAFLDVFSGHAPLPGGDTLAAVYSGHQFGVWAGQLGEVRGPAGGWELQLKGAGMTPYSRMGDGRAVLRSSVREYLASEAMHGLGIPTTRSLALVVSDDPVMRETVETAAVVTRMAPSFVRFGSFEHWSARRQPEQLRVLADYVIDRFYPECRVAGAGRLDGEHGEILGLLAAVTRRTALLMADWQAVGFCHGVMNTDNMSILGLTLDYGPYGFMDTFQLGHICNHSDSEGRYAWNRQPSVGLWNLYRLASSLHTLAPDPEALRAVLDGYEAVFTQAFHGRMAGKLGLPQFLPEDETLLDDLLQLMHQQGADFTLAFRRLGEAVRGQRQPFEDSFIDRAAAGAWYDRLAARHASDGRAAQARAAAMDEVNPLYVLRNHLAEQAIRAAARGDAGEIDILLKLLRNPYKHQPGYDAYAGLAPDWAAGLEVSCSSLEHHHHHH	not soluble
MAHHHHHHMTTLPVLHLKATSLQNVTIAADLSDTTATLYTFLRSTPSAAETELALQPFLESLHAAPSSGRAALMRRPNHHLVQLLESVAVDGVFRCTPHVLPALARHSDRWLHRLGYASMDGEAANLTAVMDSSAHAASGSQRSASPPTAAPFPIMRVRATDMHQYVDPYSAYEADYLGRQEAARSSYVDASASGEARLPTNGSAAESGGLQHRDTTHPHEEASSVSAEVSALTAPGDEPQLSEPAPSASHAVTPAPTAALTSAPAIHPVLHLIANQVLQQQEEGEKTGRENAEERAHPSSSHAVLDEKLHRLMAQLNEAETQLTAAMAEKEATEQVWLPYYSRLKTSRVYVNELKSRLQSAASLYLLQRYERETLQQAHIGVAMESISLQLVLRDVRARLEDEQRSSLTDGHHQATESDRLAQQLSAVLGVPAAASQRNAACDRTN	not soluble
MAFGLPDTAALNKAADQKTSVSMPVRGRLVMNDSGILDVQLVKTNTAGAVKVARAVLDKETGYWGYTLPAVADVPAQTIFVSPADALGANGPLTLSGPVPLPERILHTGDQISAPQATDKTVTPVADDLDFDDIILVFPPESGLKPLYVMYRSPRNMPGTVSGKGLEHHHHHH	soluble
MKVLLIIPAYNEEENILRTIASIETFKQEVTHFQHELDYVVINDGSTDGTKQILEANQINAIHLVLNLGIGGAVQTGYKYALENEYDVAVQFDGDGQHDINSLPILLEPLAEGKCDFSIGSRFIPGNEASFQSTKMRRFGIRLLSFCIRMASGKTIYDVTSGYRAGNRKVIAFFAKRYPTNYPEPESIVHLIKKRFVIVERPVNMMERLGGVSSIRALASVKYMLEVGSAILIAAFMKEGDLEHHHHHH	soluble
ISNRIKGKTVLVTGAGGSIGSEICRQISAFQPKEIILLGHGENSIHSIYTELNGRFGKHIVFHTEIADVQDRDKMFTLMKKYEPHVVYHAAAHKHVPLMEHNPEE	not soluble
MSLKKIEKIIEKEIHKNKLLQALMKKNQKTDKKTVFELVKQFNQKLNLTTILKTIRTKRSTYYYWLKAENKIKAKKEKYLLQQNRIKALCLHQQYFYGHRKITDLYQKTFNEFITKKKVYTIMKKNDINCRLRIKKNKYNYKNNLKTKLKVVDNLINQDFISIAPLQKLFTDITYFKIPQGFLYFSCIIDSFNNQIIASHTSKHQNKELVLNTIQKLPLLKEPCIIHSDQGTVYQSQKVQQTLTKKGFLISMSRKATPRDNAVIENFFGQMKTILQHQHPFLFQKSTKKLKKIINHFPKFWNNQWILAKLNYSSPSQYSQNLIEGHHHHHH	not soluble
MTVQIENEFLIATFAEEGAELVSLQSKETGIEYIWQGNPEFWARHAPVLFPIVGRLKEDTYMYQNQAYHLTQHGFARDQVFDVIEKGGEEVSFSLKSTKETKKKYPFDFELVITYTLEHQELTVNYQVEYTGKEEMYFGIGGHPAFNVPLESSLTFEDYYLSFSPKKSRTQIPLAGPFIDLANKTLAQTNTSFDLTHQLFENDAMIFETKGQTAITIATDESDHQVTLSYPEMPFVGIWSPTPKEAPFVCIEPWCGIADAVDATGQLAEKFGINKLPANELFKTQYMISVKLEHHHHHH	not soluble
RTQFKINSIPTVSDPYHINYDLTFSLNFASNKRNTYGTGWLIDWKGDENNPEKNDPFKVYLATNLHVIDALRNNNDYEPYNKDSNNQAFNSEEITRFFSIGKYTYPSIFSELNFIINAREAFVSIQTSTIPKTAYAAVNFVETQGEDESYTDSLSTDNKRDIYADFAVI	not soluble
MAKRQQRSNKPSSEYTCLGHLVNLIPGKEQKVEITNRNVTTIGRSRSCDVILSEPDISTFHAEFHLLQMDVDNFQRNLINVIDKSRNGTFINGNRLVKKDYILKNGDRIVFGKSCSFLFKYASSSSTDIENDDEKVSSESRSYRSHHHHHH	soluble
